Assay results from PMC5667929, “Combinatorial action of Grainyhead, Extradenticle and Notch in regulating Hox mediated apoptosis in Drosophila larval CNS”.

T1: Exd/Hth-HM (UniProt P40427;O46339 1-376;127-211)
T1 sequence 1: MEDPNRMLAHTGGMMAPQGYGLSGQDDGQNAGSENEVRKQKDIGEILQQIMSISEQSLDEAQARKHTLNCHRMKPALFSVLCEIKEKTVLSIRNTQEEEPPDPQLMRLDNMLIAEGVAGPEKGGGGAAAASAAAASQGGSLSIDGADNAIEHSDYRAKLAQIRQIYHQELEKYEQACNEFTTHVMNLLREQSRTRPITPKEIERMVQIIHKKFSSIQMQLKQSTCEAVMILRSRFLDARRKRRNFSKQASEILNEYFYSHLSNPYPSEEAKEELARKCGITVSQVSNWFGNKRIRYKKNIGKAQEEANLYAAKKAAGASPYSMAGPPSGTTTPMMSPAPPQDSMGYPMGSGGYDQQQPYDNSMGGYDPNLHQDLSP
T1 sequence 2: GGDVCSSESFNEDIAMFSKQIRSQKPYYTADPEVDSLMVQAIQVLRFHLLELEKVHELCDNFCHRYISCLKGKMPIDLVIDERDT

B1: motif-30 Hox1 mutant (dsDNA)
DNA 1: GAAACAGGAGAACCATAACTAATCC
DNA 2: GGATTAGTTATGGTTCTCCTGTTTC
B2: motif-25 (dsDNA)
DNA 1: CGGGATATCACCAAACCATAGAAAATTTGCGGTACA
DNA 2: TGTACCGCAAATTTTCTATGGTTTGGTGATATCCCG
B3: motif-28 (dsDNA)
DNA 1: AAGCCGAGCCTGAATCAGGTACTCAAATTGTCGC
DNA 2: GCGACAATTTGAGTACCTGATTCAGGCTCGGCTT
B4: motif-33 (dsDNA)
DNA 1: TACTGCCTGATTAGTGTAAATAATTGCCAGTCCTTG
DNA 2: CAAGGACTGGCAATTATTTACACTAATCAGGCAGTA
B5: motif-30 WT (dsDNA)
DNA 1: GAAACAGGATAACCATAACTAATCC
DNA 2: GGATTAGTTATGGTTATCCTGTTTC
B6: motif-23 (dsDNA)
DNA 1: CTATTATCACTATTGCTTTGCTTCCTCAAAACCTTCATTCGA
DNA 2: TCGAATGAAGGTTTTGAGGAAGCAAAGCAATAGTGATAATAG
B7: motif-27 (dsDNA)
DNA 1: TATATGTGGAACCACCTTGAAAGTCTACTGCCTGATTAGT
DNA 2: ACTAATCAGGCAGTAGACTTTCAAGGTGGTTCCACATATA
B8: motif-31 (dsDNA)
DNA 1: ACACAATTTTCTAAGATCCACTGGAATCGGTATGCCGATAGTT
DNA 2: AACTATCGGCATACCGATTCCAGTGGATCTTAGAAAATTGTGT
B9: motif-32 (dsDNA)
DNA 1: TTGCATGTGCGGATATATATATGTGGAACCACCTTG
DNA 2: CAAGGTGGTTCCACATATATATATCCGCACATGCAA
B10: motif-30 Exd mutant (dsDNA)
DNA 1: GAAACAGGATAACCATAACTGCTCC
DNA 2: GGAGCAGTTATGGTTATCCTGTTTC
B11: motif-30 Hox1+2 mutant (dsDNA)
DNA 1: GAAACAGGAGAACCAGGACTAATCC
DNA 2: GGATTAGTCCTGGTTCTCCTGTTTC
B12: motif-30 Grh2 mutant (dsDNA)
DNA 1: GAAACAGGATAACGATAACTAATCC
DNA 2: GGATTAGTTATCGTTATCCTGTTTC
B13: motif-30 Hox2 mutant (dsDNA)
DNA 1: GAAACAGGATAACCAGGACTAATCC
DNA 2: GGATTAGTCCTGGTTATCCTGTTTC
B14: motif-29 (Hox-Exd consensus) (dsDNA)
DNA 1: CTCAAGCGCGTGATGAATGTAATCTTCG
DNA 2: CGAAGATTACATTCATCACGCGCTTGAG

Tests used:
AbdA (Hox);Exd/Hth-HM [1] = target: T2, AbdA (Hox);Exd/Hth-HM (Drosophila melanogaster?;Drosophila …, UniProt P29555;P40427;O46339 261-590;1-376;127-211, |); experiment: EMSA; intact in text; slightly reduced per legend; EMSA, 20 ul, 30 min, room temperature; 5X buffer as printed: 20% glycerol, 1 mg/ml BSA, 2.5 mM EDTA, '50mM 1M tris' pH 7.5, 50 mM KCl, 5 mM MgCl2, 2.5 mM DTT, 90 ug/ml poly(dI-dC); proteins 100-200 ng; settings: protein: recombinant;recombinant; tags: 6xHis;6xHis; copies: 1;1;1
Target sequence in this assay (P29555 261-590, one chain of several): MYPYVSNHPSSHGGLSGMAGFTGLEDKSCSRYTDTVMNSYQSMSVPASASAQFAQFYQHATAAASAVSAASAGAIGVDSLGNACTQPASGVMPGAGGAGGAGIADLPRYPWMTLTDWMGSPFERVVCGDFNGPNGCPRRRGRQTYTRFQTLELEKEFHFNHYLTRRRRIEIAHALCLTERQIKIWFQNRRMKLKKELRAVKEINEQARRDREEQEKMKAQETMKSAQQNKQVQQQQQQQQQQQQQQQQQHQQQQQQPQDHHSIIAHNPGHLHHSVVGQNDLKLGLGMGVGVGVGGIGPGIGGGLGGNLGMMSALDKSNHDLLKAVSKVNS

[2] = target: T3, AbdA (Hox);Exd/Hth-HM;Grh (Drosophila melanogaster?;Drosophila …, UniProt P29555;P40427;O46339;P13002 261-590;1-376;127-211;551-1333, ||); experiment: EMSA; EMSA, 20 ul, 30 min, room temperature; 5X buffer as printed: 20% glycerol, 1 mg/ml BSA, 2.5 mM EDTA, '50mM 1M tris' pH 7.5, 50 mM KCl, 5 mM MgCl2, 2.5 mM DTT, 90 ug/ml poly(dI-dC); proteins 100-200 ng; settings: protein: recombinant;recombinant;recombinant; tags: 6xHis;6xHis;6xHis; copies: 1;1;1;2
Target sequence in this assay (P29555 261-590, chain 1 of 4, one chain of several): as the sequence (P29555 261-590, one chain of several) above
Target sequence in this assay (P13002 551-1333, chain 4 of 4, one chain of several): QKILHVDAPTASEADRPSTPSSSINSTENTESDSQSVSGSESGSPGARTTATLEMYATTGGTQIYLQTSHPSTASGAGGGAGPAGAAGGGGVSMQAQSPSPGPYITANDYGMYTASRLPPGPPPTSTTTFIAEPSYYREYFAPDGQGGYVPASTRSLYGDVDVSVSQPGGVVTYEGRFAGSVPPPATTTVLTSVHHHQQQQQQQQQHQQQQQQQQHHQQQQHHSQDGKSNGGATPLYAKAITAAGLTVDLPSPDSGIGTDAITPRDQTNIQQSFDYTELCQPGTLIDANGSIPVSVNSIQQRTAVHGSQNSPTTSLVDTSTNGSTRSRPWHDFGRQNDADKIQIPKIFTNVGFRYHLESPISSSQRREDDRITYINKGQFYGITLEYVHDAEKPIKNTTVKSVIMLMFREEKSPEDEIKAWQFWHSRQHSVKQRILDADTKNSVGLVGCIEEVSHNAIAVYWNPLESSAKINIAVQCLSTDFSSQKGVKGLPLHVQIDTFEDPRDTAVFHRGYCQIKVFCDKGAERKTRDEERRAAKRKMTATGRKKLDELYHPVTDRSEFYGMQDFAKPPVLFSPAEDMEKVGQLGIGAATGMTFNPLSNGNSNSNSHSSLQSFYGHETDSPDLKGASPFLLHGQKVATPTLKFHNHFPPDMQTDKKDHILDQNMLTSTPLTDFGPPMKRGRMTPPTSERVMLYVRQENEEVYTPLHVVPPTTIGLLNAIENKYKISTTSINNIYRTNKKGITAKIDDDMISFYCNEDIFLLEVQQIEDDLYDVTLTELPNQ

AbdA (Hox);Exd/Hth-HM [3] = target: T2, AbdA (Hox);Exd/Hth-HM; experiment: as above; settings: protein: recombinant;recombinant; tags: 6xHis;6xHis; copies: 1;1;1
Grh [4] = target: T4, Grh (UniProt P13002 551-1333); experiment: as above; settings: protein: recombinant; tags: 6xHis; chain copies: 2
T4 sequence (P13002 551-1333): as the sequence (P13002 551-1333, chain 4 of 4, one chain of several) above

AbdA (Hox);Grh = AbdA (Hox);Grh (Drosophila melanogaster?;Drosophila …, UniProt P29555;P13002 261-590;551-1333, |); experiment: as above; settings: protein: recombinant;recombinant; tags: 6xHis;6xHis; copies: 1;2
AbdA (Hox);Grh, sequence (P29555 261-590, chain 1 of 2): as the sequence (P29555 261-590, one chain of several) above
AbdA (Hox);Grh, sequence (P13002 551-1333, chain 2 of 2): as the sequence (P13002 551-1333, chain 4 of 4, one chain of several) above

AbdA (Hox) [5] = target: T5, AbdA (Hox) (UniProt P29555 261-590); experiment: as above; settings: protein: recombinant; tags: 6xHis
T5 sequence (P29555 261-590): as the sequence (P29555 261-590, one chain of several) above

Exd/Hth-HM [6] = target: T1, Exd/Hth-HM; experiment: as above; settings: protein: recombinant; tags: 6xHis; copies: 1;1
AbdA (Hox) [7] = target: T5, AbdA (Hox); experiment: EMSA; 100 and 200 ng; EMSA, 20 ul, 30 min, room temperature; 5X buffer as printed: 20% glycerol, 1 mg/ml BSA, 2.5 mM EDTA, '50mM 1M tris' pH 7.5, 50 mM KCl, 5 mM MgCl2, 2.5 mM DTT, 90 ug/ml poly(dI-dC); proteins 100-200 ng; settings: protein: recombinant; tags: 6xHis
Exd/Hth-HM [8] = target: T1, Exd/Hth-HM; experiment: EMSA; 200 ng; another sentence claims strong binding of each protein; EMSA, 20 ul, 30 min, room temperature; 5X buffer as printed: 20% glycerol, 1 mg/ml BSA, 2.5 mM EDTA, '50mM 1M tris' pH 7.5, 50 mM KCl, 5 mM MgCl2, 2.5 mM DTT, 90 ug/ml poly(dI-dC); proteins 100-200 ng; settings: protein: recombinant; tags: 6xHis; copies: 1;1
Grh [9] = target: T4, Grh; experiment: EMSA; no significant decrease; EMSA, 20 ul, 30 min, room temperature; 5X buffer as printed: 20% glycerol, 1 mg/ml BSA, 2.5 mM EDTA, '50mM 1M tris' pH 7.5, 50 mM KCl, 5 mM MgCl2, 2.5 mM DTT, 90 ug/ml poly(dI-dC); proteins 100-200 ng; settings: protein: recombinant; tags: 6xHis; chain copies: 2
[10] = target: T3, AbdA (Hox);Exd/Hth-HM;Grh; experiment: EMSA; intact; slightly reduced intensity per legend; EMSA, 20 ul, 30 min, room temperature; 5X buffer as printed: 20% glycerol, 1 mg/ml BSA, 2.5 mM EDTA, '50mM 1M tris' pH 7.5, 50 mM KCl, 5 mM MgCl2, 2.5 mM DTT, 90 ug/ml poly(dI-dC); proteins 100-200 ng; settings: protein: recombinant;recombinant;recombinant; tags: 6xHis;6xHis;6xHis; copies: 1;1;1;2
Target sequence in this assay (P29555 261-590, chain 1 of 2): as the sequence (P29555 261-590, one chain of several) above
Target sequence in this assay (P13002 551-1333, chain 4 of 2): as the sequence (P13002 551-1333, chain 4 of 4, one chain of several) above

[11] = target: T3, AbdA (Hox);Exd/Hth-HM;Grh; experiment: EMSA; completely abolished in text; largely per legend; EMSA, 20 ul, 30 min, room temperature; 5X buffer as printed: 20% glycerol, 1 mg/ml BSA, 2.5 mM EDTA, '50mM 1M tris' pH 7.5, 50 mM KCl, 5 mM MgCl2, 2.5 mM DTT, 90 ug/ml poly(dI-dC); proteins 100-200 ng; settings: protein: recombinant;recombinant;recombinant; tags: 6xHis;6xHis;6xHis; copies: 1;1;1;2
Target sequence in this assay (P29555 261-590, chain 1 of 2): as the sequence (P29555 261-590, one chain of several) above
Target sequence in this assay (P13002 551-1333, chain 4 of 2): as the sequence (P13002 551-1333, chain 4 of 4, one chain of several) above

Binder | binding result [2] | binding result (AbdA (Hox);Exd/Hth-HM [3]) | binding result (Grh [4]) | binding result (AbdA (Hox);Grh) | other results
B1 | – | – | – | – | binding result (AbdA (Hox);Exd/Hth-HM [1]): binds
B2 | no binding | binds | binds | – | –
B3 | no binding | binds | binds | binds | –
B4 | no binding | binds | binds | binds | binding result (AbdA (Hox) [5]): binds; binding result (Exd/Hth-HM [6]): binds
B5 | binds | binds | binds | binds | binding result (AbdA (Hox) [7]): binds; binding result (Exd/Hth-HM [8]): no binding
B6 | – | binds | binds | – | –
B7 | binds | binds | binds | – | –
B8 | no binding | binds | binds | – | binding result (AbdA (Hox) [5]): binds
B9 | binds | binds | binds | – | binding result (Exd/Hth-HM [6]): binds
B10 | no binding | no binding | binds | binds | –
B11 | no binding | no binding | – | no binding | binding result (AbdA (Hox) [5]): no binding
B12 | – | – | – | – | binding result (Grh [9]): binds; binding result [10]: binds
B13 | – | no binding | binds | no binding | binding result (AbdA (Hox) [5]): no binding; binding result [11]: no binding
B14 | – | binds | no binding | – | –
